Reference: the domain aggregation screens of Martell et al. (2025)

Experiment: soluble fraction after stress (log2 fold change); higher = more stays soluble; pooled small domains, quantitative proteomics
Settings: stress: 50 degC
In short: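 After stress at 50°C, the amount of each protein still soluble was measured. This was done on pooled custom libraries of small protein domains, using high-throughput quantitative proteomics. The figure given is a base-two log fold change and stands for aggregation propensity, with higher values meaning more protein stays in solution.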

Point of comparison: “HMNETVTNQTVLDLLKEGFTSEEIIGAIENSSTRTITYDINFMRQLKAAGADVTLTTYLQKIAKKDM”, “soluble fraction (log2)” value -0.13. Against it:
- HMVEPTDFTYLKAEVETAKALKQADYTVATWKSFAGELAEAEEVIAKTDASQAEVNEALSHLQAAEKELV — higher, 0.175
- HMLRKTTDLDAIRSVAKDVIDQNPKAVEDYVGGKESAIGFLLGQVMRATKGTADANTVRELLKEILDS — higher, 0.311
- HMINEVVSLRDVPSFIGKAKRDVIRIAEENNLKIKINGNGYVKEQTPNPGNKYKSNQEIKVFLEPG — higher, 0.0894
- HMTEWDDATVKDAVEYFMSVNGRVPTVTDFKKENGLPSHPVIKQRYKINLHEWLNKNFPTYY — lower, -0.544
- HMKQVTVGGTINAGGARIYADSYGNGGGRQTFGSDPIYTVLQERNGYILTRWHKLSSGYTGWFKKSDVSA — within 0.2 log units, -0.298
- HMKSARDDILSALDKAGEPLSMKDIAELSGRKLSTLRAQMTRLVAEGAVQATAAAHSPDRKYRK — within 0.2 log units, -0.0859
- HMNYAVTAARRESILNAALEIFGKSGYNGSSVKQVALAVGMTEAGVLHHFGTKSNLLIEVLRV — higher, ≥ 0.62
- HMRKLTDRQRQILDLIKTIIAETGAPPTRAEISTALGFKSANAAQEHLQALAQKGMIDLVSGASRGIRLRG — lower, -0.379
- HMTGGMVTYIIEKGEGFFSLERKFGLSENELIKLNPSLKSGLKSEMQINIPKENYDRYVASS — within 0.2 log units, -0.0276
- HMSHISLGQRYKIEGYLQINLKRTQIAKEIGLPKKTVNQEIKRNSNPQTGIYKAEEAHQLYLDRMQKKRK — within 0.2 log units, -0.131
- HMSKLQETEIPVALEVEKIPGLSNELKQKLLKIKPQTIGQASRISGITPAAISILMIYIKKNESISAVK — lower, -1.57
- HMRLLAESIARGLDPEGSGGLWAKEAGAEALKLMETLAAEAPHGGSFTAAAYRDLFESLVHQGEVREA — within 0.2 log units, 0.0472
- HMKDGMRVYITYHDSEEEPEKPIGDGTTKGWHTNSTASVVWISQKVAESADLGIWGDPIRIKGEA — within 0.2 log units, -0.14
- HMNEFNEVVPDSLEGERLDRLLAFIGNISRSEASNIIKGGEVLINGKVVTRPSFKVTLGNRVEFSIRD — lower, -0.387
- HMKHKGILTTWNDDRGFGFITPKEGKEPVFVHISAFARGQGRPVLNASLTYRLVRDDQQRPRAEAVRL — lower, -1.15
- HMNPDTERIREFVAVSLKNRKVATSGEIQNMIVKQFKNFKLKSHGYSNMKSFLSSIDKIQLNSNGKYSLK — lower, -0.355
- HMNTAIDGLIEKVGMFAMEKKAISVDQVKENFSINGEQAESVIKQLETIGVLGKKNEDGTHTVM — higher, 0.0766
- HMSQTVKYVNTTSGLNMRTGPATSYAKITTIAYGQSVNVLSTSNGWSKINYSGSTGYVSSQYLQSKKPS — lower, -0.942
- HMSTSIADNSSITYKVRKGDSLASIAKRHGVNINDVMRWNSVITKASQIQPGDMLTLYVRDS — within 0.2 log units, 0.026
- HMGRKPVSPEIVERVLQLAKSNPDWGYEHIAGTMRYLGYNVSATTIRHILEANGIVPDPERRL — within 0.2 log units, -0.128
- HMAMNITQRHQEILAVIKQEKHITVSEISKLLGVSEVTIRKDFNYLEEKNLIYRHHGGASLNN — lower, -1.58
- HMKPDDDMLLKILTKLFIQKQFVINSKDIFQYILKNTNRTYENIINIVNRLDTLSIEKKRQLTIPLIKEI — lower, -0.457
- HMPDLQDTLYRLVPEDGSAIGNQSLREKFLSTAKDASDADFEAARDGLVEQGKLTKGKGRGGSVRRAEP — higher, 0.389
- HMYIEKTAYINDTAVNVRKSATTDSDVIKVLALNTEITIIGEENDWYKVKSGNDIGYIAKRLVSDQKKE — higher, 0.0858
- HMGKASNEVYEVISSKIRTGEWAPGYKLPSEPTLAEEFGVSRATVREALQELISRGRIKREQGRGTYVLH — higher, 0.161
- HMLPDSQLMKEATAWFMRQAADDFSGAERRRLDAWRAQSPAHARAYHQVQALWNAPELQQAAAR — within 0.2 log units, -0.0227
- HMVVVVELTENEKAVQDVLTKNEGSLEISDLKTKLELSGKQWDKALKGLAKHGITQVAKVDGVVTVSL — within 0.2 log units, -0.303
- HMETLKINTHLGTLNLKKRGKKGTWQINIYFKNIEGDNHYRQSTGTNQLELAKAKAMNMITTEYSNRLAGI — lower, -1.69
- HMAVDPSVLTRRERQALAWIARGLSNKEVARGLNLAESTVKVHVQSILRKLNLTSRVQAAVYAIEHGIDK — lower, -2.79
- HMNDLIKMPYLVGQLYDDVASNQEYADFQFKITEGNDPDKQPGEIMKQDPAADIMVKKNAEVELLVNG — higher, 0.247
- HMNNLELSEEEKSVLTIIEKEGLIELDKLKTKLELSNKKWDKTLKFLTKNKLAKVVKNDNGLFVEL — higher, 0.0812
- HMGYINLNVKVSPEWRDFWRSAYASVVAGYHQNKEHWNTIILDGSIPDKDIKRMIAESYDLVSD — lower, -0.797
- HMKSIRIPFILTEGPNSQKITIDIDSDEEFRIGDVFDEDDKLWSINQILISGDRKAKMAIASEVTSISALR — lower, -2.39
- HMNLQAYQSVLDKLNEEYGTTFRFPTEEELHEVGLTNTVDPRTATVSATEFEKYMRPIAERISQANL — within 0.2 log units, -0.00884
- HMGKFMVQVGAFSRINGAEITRTKYDNLGTHKAIIKNLDGMNRVFLTGFLSEDEARDFIASSNLKGAFIIR — lower, -1.66
- HMNSKMTYSELVTNITNKEVESIKISSTGSTASVKLKNSKSEKEVNIPSLDSFMSYTEEYLKTGDFTLDEE — within 0.2 log units, -0.144
- HMFPNLTNEEQQVMKVLAKTNDLQINMLSVQSNLPIARLTALLFSMEMKGVVKTLAGGVYHLL — lower, -3.23
